Measurements taken from the supplement of paper PMC10065799, “High-throughput profiling of sequence recognition by tyrosine kinases and SH2 domains using bacterial peptide display” (eLife, 2023).

Tested on: c-Abl (mouse)
Test: phosphorylation enrichment, bacterial display (enrichment ratio); higher = better substrate or ligand; peptides without Tyr show the background
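Note: 11-residue human phosphosite peptides and single-mutation variants displayed on the E. coli surface, counted by deep sequencing, each peptide's frequency after selection divided by its frequency in the unselected input library; frequency after pTyr selection over input frequency; kinase dosed for 20-30% of maximal phosphorylation in three min.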

Going from ALTDNYMYVVI [HAGH_Y61_L64V] to FDGKDYIALKE [HLA-A_Y147_N151K_YF], the phosphorylation enrichment falls from 0.952 to 0.536.

Compared with SAVTGYRVNVI [FN1_Y937_D940N], TLSGTYQYIIA [FOXL2_Y81_I80T] is higher in phosphorylation enrichment: 0.415 for the first, 1.05 for the second.

Compared with CTNIHYNYMCN [TP53_Y234_T231N], PLTKVYVVEGS [ZMPSTE24_Y253] is lower in phosphorylation enrichment: 1.62 for the first, 0.617 for the second.

Compared with SDGKRYRVPSD [HHIPL2_Y395_H391D], LFMGDYVGRGY [PPP2CA_Y86_D88G] is higher in phosphorylation enrichment: 0.44 for the first, 0.953 for the second.

Going from LFLACYCIGGG [UBD_Y161] to FFCRWYRNQKS [EREG_Y144_R147Q_YF], the phosphorylation enrichment falls from 0.908 to 0.855.

First: EEQKKYYNAMK [SCN5A_Y1494]
Second: YQRITYHNWRH [PDE6B_Y556_R552Q]
The phosphorylation enrichment of the first is higher: 0.525 for the first, 0.485 for the second.

First: QLQVFYATRDQ [MIPEP_Y579_L582R]
Second: LSRDVYEEDSY [RET_Y900]
The phosphorylation enrichment of the first is higher: 1.2 for the first, 0.906 for the second.

Going from CTTIHYFFMCN [TP53_Y234_N235Y_YF] to GKMSSYAFFVQ [HMGB1_Y16], the phosphorylation enrichment rises from 0.662 to 0.849.

Going from ETEMLYGSAPR [PRC1_Y464] to TVEDHYFEGGI [TKT_Y563_YF], the phosphorylation enrichment rises from 0.716 to 0.798.

Going from GTFVIYVRFSG [FLNB_Y1687_G1691S_YF] to PVDTFYDSTRG [DYNC2H1_Y2231_M2227V_YF], the phosphorylation enrichment rises from 0.979 to 1.04.

First: GQKVAYGGTED [ALDH3A1_Y305_G309E]
Second: SLRAHYDTPRS [DOK7_Y405]
The phosphorylation enrichment of the first is higher: 0.577 for the first, 0.412 for the second.

First: GEYYRYLAEVA [YWHAG_Y133_D129E]
Second: TVLWWYTGTRP [UGT1A1_Y337_R336W]
The phosphorylation enrichment of the first is higher: 1.88 for the first, 0.599 for the second.

Going from PGAPAYCVLME [MYO5A_Y1245_R1246C] to LGIDRYHAIVF [NPSR1_Y147_S143G_YF], the phosphorylation enrichment rises from 1.27 to 1.31.

Going from GLSSAYGDLTS [KRT8_Y427_G429D] to PVKSEYPSIKL [NPC2_Y119], the phosphorylation enrichment rises from 0.536 to 0.654.

Going from GQECEYPPTQD [METAP2_Y137] to KVPELYEIHTE [BCR_Y554_K558T], the phosphorylation enrichment falls from 1.06 to 0.712.

Compared with IGHHAYGDQFR [IDH1_Y135_R132H_YF], VREIRYQGGNR [VWF_Y1570] is higher in phosphorylation enrichment: 0.516 for the first, 0.615 for the second.

TDECEYDELIV [TGM1_Y136_Y134C] gave a phosphorylation enrichment of 0.742.

Molecular target: FGFR3 (UniProt P22607)
Sequence (P22607 whole entry, looked up): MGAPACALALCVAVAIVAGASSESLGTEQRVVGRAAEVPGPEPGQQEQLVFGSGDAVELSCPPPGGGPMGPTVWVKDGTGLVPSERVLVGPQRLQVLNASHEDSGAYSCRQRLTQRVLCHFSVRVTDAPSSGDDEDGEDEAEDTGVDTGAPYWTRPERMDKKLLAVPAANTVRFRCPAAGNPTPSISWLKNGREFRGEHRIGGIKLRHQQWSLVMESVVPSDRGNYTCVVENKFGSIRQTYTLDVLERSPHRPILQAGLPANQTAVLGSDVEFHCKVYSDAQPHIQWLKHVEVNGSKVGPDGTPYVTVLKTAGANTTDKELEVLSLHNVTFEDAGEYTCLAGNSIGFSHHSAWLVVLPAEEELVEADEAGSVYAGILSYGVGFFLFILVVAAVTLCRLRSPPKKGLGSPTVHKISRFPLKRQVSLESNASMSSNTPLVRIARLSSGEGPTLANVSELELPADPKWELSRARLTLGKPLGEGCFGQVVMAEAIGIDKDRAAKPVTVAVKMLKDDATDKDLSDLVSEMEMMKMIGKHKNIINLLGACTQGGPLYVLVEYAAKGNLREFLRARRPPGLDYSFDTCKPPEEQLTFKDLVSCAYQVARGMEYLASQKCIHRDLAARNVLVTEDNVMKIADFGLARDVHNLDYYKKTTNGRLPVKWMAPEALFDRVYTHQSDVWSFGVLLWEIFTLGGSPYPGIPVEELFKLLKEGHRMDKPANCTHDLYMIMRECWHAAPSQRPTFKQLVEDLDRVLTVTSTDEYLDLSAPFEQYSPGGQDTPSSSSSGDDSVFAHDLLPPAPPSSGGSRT
Test: as above

First: ALTDNYMYVVI [HAGH_Y61_L64V]
Second: FDGKDYIALKE [HLA-A_Y147_N151K_YF]
The phosphorylation enrichment of the first is higher: 9.14 for the first, 0.44 for the second.

Going from SAVTGYRVNVI [FN1_Y937_D940N] to TLSGTYQYIIA [FOXL2_Y81_I80T], the phosphorylation enrichment rises from 0.488 to 3.44.

First: CTNIHYNYMCN [TP53_Y234_T231N]
Second: PLTKVYVVEGS [ZMPSTE24_Y253]
The phosphorylation enrichment of the first is lower: 0.62 for the first, 0.73 for the second.

Going from SDGKRYRVPSD [HHIPL2_Y395_H391D] to LFMGDYVGRGY [PPP2CA_Y86_D88G], the phosphorylation enrichment rises from 0.426 to 1.19.

Compared with LFLACYCIGGG [UBD_Y161], FFCRWYRNQKS [EREG_Y144_R147Q_YF] is lower in phosphorylation enrichment: 1.29 for the first, 0.478 for the second.

Going from EEQKKYYNAMK [SCN5A_Y1494] to YQRITYHNWRH [PDE6B_Y556_R552Q], the phosphorylation enrichment rises from 0.535 to 0.618.

Compared with QLQVFYATRDQ [MIPEP_Y579_L582R], LSRDVYEEDSY [RET_Y900] is lower in phosphorylation enrichment: 1 for the first, 0.968 for the second.

First: CTTIHYFFMCN [TP53_Y234_N235Y_YF]
Second: GKMSSYAFFVQ [HMGB1_Y16]
The phosphorylation enrichment of the first is lower: 0.635 for the first, 0.741 for the second.

Compared with ETEMLYGSAPR [PRC1_Y464], TVEDHYFEGGI [TKT_Y563_YF] is higher in phosphorylation enrichment: 0.557 for the first, 1.03 for the second.

First: GTFVIYVRFSG [FLNB_Y1687_G1691S_YF]
Second: PVDTFYDSTRG [DYNC2H1_Y2231_M2227V_YF]
The phosphorylation enrichment of the first is lower: 0.569 for the first, 0.722 for the second.

Compared with GQKVAYGGTED [ALDH3A1_Y305_G309E], SLRAHYDTPRS [DOK7_Y405] is lower in phosphorylation enrichment: 0.63 for the first, 0.351 for the second.

Compared with GEYYRYLAEVA [YWHAG_Y133_D129E], TVLWWYTGTRP [UGT1A1_Y337_R336W] is lower in phosphorylation enrichment: 7.42 for the first, 0.68 for the second.

First: PGAPAYCVLME [MYO5A_Y1245_R1246C]
Second: LGIDRYHAIVF [NPSR1_Y147_S143G_YF]
The phosphorylation enrichment of the first is higher: 1.64 for the first, 1.37 for the second.

First: GLSSAYGDLTS [KRT8_Y427_G429D]
Second: PVKSEYPSIKL [NPC2_Y119]
The phosphorylation enrichment of the first is lower: 0.486 for the first, 0.623 for the second.

First: GQECEYPPTQD [METAP2_Y137]
Second: KVPELYEIHTE [BCR_Y554_K558T]
The phosphorylation enrichment of the first is higher: 0.852 for the first, 0.68 for the second.

Compared with IGHHAYGDQFR [IDH1_Y135_R132H_YF], VREIRYQGGNR [VWF_Y1570] is lower in phosphorylation enrichment: 0.477 for the first, 0.382 for the second.

In the case of TDECEYDELIV [TGM1_Y136_Y134C], the phosphorylation enrichment is reported as 0.865.

Molecular target: Fes (UniProt P07332)
Sequence (P07332 whole entry, looked up): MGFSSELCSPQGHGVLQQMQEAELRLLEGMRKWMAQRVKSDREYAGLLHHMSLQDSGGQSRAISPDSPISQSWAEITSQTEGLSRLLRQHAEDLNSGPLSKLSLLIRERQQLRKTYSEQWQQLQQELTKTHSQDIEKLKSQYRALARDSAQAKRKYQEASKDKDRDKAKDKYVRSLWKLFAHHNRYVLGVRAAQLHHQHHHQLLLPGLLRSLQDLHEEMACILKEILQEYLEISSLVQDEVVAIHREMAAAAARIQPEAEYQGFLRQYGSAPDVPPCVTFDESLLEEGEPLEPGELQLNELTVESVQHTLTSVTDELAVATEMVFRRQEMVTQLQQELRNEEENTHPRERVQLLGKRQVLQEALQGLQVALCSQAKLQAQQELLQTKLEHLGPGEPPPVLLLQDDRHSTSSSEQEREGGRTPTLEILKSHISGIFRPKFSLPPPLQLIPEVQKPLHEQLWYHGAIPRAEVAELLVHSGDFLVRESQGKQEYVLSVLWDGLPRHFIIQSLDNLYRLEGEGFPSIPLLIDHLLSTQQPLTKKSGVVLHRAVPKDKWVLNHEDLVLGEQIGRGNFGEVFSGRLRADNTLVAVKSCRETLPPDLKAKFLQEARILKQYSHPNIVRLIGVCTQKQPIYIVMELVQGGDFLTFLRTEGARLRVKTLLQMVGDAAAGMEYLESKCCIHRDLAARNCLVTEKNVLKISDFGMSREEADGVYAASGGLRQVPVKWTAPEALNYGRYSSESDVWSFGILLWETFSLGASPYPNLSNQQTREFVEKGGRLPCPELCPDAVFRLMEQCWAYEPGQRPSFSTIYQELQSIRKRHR
Test: as above

First: ALTDNYMYVVI [HAGH_Y61_L64V]
Second: FDGKDYIALKE [HLA-A_Y147_N151K_YF]
The phosphorylation enrichment of the first is higher: 1.42 for the first, 0.672 for the second.

Going from SAVTGYRVNVI [FN1_Y937_D940N] to TLSGTYQYIIA [FOXL2_Y81_I80T], the phosphorylation enrichment rises from 0.752 to 1.08.

First: CTNIHYNYMCN [TP53_Y234_T231N]
Second: PLTKVYVVEGS [ZMPSTE24_Y253]
The phosphorylation enrichment of the first is lower: 0.82 for the first, 0.952 for the second.

First: SDGKRYRVPSD [HHIPL2_Y395_H391D]
Second: LFMGDYVGRGY [PPP2CA_Y86_D88G]
The phosphorylation enrichment of the first is lower: 0.522 for the first, 1.21 for the second.

First: LFLACYCIGGG [UBD_Y161]
Second: FFCRWYRNQKS [EREG_Y144_R147Q_YF]
The phosphorylation enrichment of the first is higher: 2.71 for the first, 0.6 for the second.

Compared with EEQKKYYNAMK [SCN5A_Y1494], YQRITYHNWRH [PDE6B_Y556_R552Q] is lower in phosphorylation enrichment: 0.771 for the first, 0.619 for the second.

Going from QLQVFYATRDQ [MIPEP_Y579_L582R] to LSRDVYEEDSY [RET_Y900], the phosphorylation enrichment falls from 1.71 to 1.39.

Compared with CTTIHYFFMCN [TP53_Y234_N235Y_YF], GKMSSYAFFVQ [HMGB1_Y16] is higher in phosphorylation enrichment: 0.982 for the first, 1.14 for the second.

First: ETEMLYGSAPR [PRC1_Y464]
Second: TVEDHYFEGGI [TKT_Y563_YF]
The phosphorylation enrichment of the first is lower: 0.805 for the first, 1.05 for the second.

Compared with GTFVIYVRFSG [FLNB_Y1687_G1691S_YF], PVDTFYDSTRG [DYNC2H1_Y2231_M2227V_YF] is lower in phosphorylation enrichment: 1.4 for the first, 0.95 for the second.

First: GQKVAYGGTED [ALDH3A1_Y305_G309E]
Second: SLRAHYDTPRS [DOK7_Y405]
The phosphorylation enrichment of the first is higher: 0.939 for the first, 0.448 for the second.

Compared with GEYYRYLAEVA [YWHAG_Y133_D129E], TVLWWYTGTRP [UGT1A1_Y337_R336W] is higher in phosphorylation enrichment: 0.858 for the first, 1.32 for the second.

First: PGAPAYCVLME [MYO5A_Y1245_R1246C]
Second: LGIDRYHAIVF [NPSR1_Y147_S143G_YF]
The phosphorylation enrichment of the first is lower: 1.44 for the first, 1.82 for the second.

Compared with GLSSAYGDLTS [KRT8_Y427_G429D], PVKSEYPSIKL [NPC2_Y119] is higher in phosphorylation enrichment: 0.659 for the first, 0.822 for the second.

Compared with GQECEYPPTQD [METAP2_Y137], KVPELYEIHTE [BCR_Y554_K558T] is lower in phosphorylation enrichment: 1.41 for the first, 0.984 for the second.

Going from IGHHAYGDQFR [IDH1_Y135_R132H_YF] to VREIRYQGGNR [VWF_Y1570], the phosphorylation enrichment rises from 0.618 to 0.653.

In the case of TDECEYDELIV [TGM1_Y136_Y134C], the phosphorylation enrichment is reported as 1.13.

Molecular target: Hck (UniProt P08631)
Sequence (P08631 whole entry, looked up): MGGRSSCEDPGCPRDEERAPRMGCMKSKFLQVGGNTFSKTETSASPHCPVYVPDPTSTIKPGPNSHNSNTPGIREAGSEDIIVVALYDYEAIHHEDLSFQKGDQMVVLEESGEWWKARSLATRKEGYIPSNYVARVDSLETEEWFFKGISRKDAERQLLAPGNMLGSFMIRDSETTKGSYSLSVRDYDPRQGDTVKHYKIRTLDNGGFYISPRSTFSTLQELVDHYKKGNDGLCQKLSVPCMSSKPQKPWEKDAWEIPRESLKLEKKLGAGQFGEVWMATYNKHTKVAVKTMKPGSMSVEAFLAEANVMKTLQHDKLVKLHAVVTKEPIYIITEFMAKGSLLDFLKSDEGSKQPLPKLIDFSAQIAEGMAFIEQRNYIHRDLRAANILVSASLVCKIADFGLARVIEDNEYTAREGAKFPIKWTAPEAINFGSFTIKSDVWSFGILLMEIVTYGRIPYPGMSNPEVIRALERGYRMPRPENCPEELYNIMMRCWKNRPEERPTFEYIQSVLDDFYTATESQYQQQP
Test: as above

First: ALTDNYMYVVI [HAGH_Y61_L64V]
Second: FDGKDYIALKE [HLA-A_Y147_N151K_YF]
The phosphorylation enrichment of the first is higher: 1.52 for the first, 0.363 for the second.

Compared with SAVTGYRVNVI [FN1_Y937_D940N], TLSGTYQYIIA [FOXL2_Y81_I80T] is higher in phosphorylation enrichment: 0.399 for the first, 3.11 for the second.

First: CTNIHYNYMCN [TP53_Y234_T231N]
Second: PLTKVYVVEGS [ZMPSTE24_Y253]
The phosphorylation enrichment of the first is lower: 0.437 for the first, 0.441 for the second.

First: SDGKRYRVPSD [HHIPL2_Y395_H391D]
Second: LFMGDYVGRGY [PPP2CA_Y86_D88G]
The phosphorylation enrichment of the first is lower: 0.346 for the first, 1.75 for the second.

First: LFLACYCIGGG [UBD_Y161]
Second: FFCRWYRNQKS [EREG_Y144_R147Q_YF]
The phosphorylation enrichment of the first is lower: 0.562 for the first, 0.596 for the second.

First: EEQKKYYNAMK [SCN5A_Y1494]
Second: YQRITYHNWRH [PDE6B_Y556_R552Q]
The phosphorylation enrichment of the first is lower: 0.392 for the first, 0.579 for the second.

First: QLQVFYATRDQ [MIPEP_Y579_L582R]
Second: LSRDVYEEDSY [RET_Y900]
The phosphorylation enrichment of the first is higher: 1.14 for the first, 0.771 for the second.

Going from CTTIHYFFMCN [TP53_Y234_N235Y_YF] to GKMSSYAFFVQ [HMGB1_Y16], the phosphorylation enrichment rises from 0.37 to 0.513.

Going from ETEMLYGSAPR [PRC1_Y464] to TVEDHYFEGGI [TKT_Y563_YF], the phosphorylation enrichment falls from 6.51 to 0.497.

Compared with GTFVIYVRFSG [FLNB_Y1687_G1691S_YF], PVDTFYDSTRG [DYNC2H1_Y2231_M2227V_YF] is higher in phosphorylation enrichment: 0.454 for the first, 0.888 for the second.

First: GQKVAYGGTED [ALDH3A1_Y305_G309E]
Second: SLRAHYDTPRS [DOK7_Y405]
The phosphorylation enrichment of the first is higher: 0.402 for the first, 0.328 for the second.

Going from GEYYRYLAEVA [YWHAG_Y133_D129E] to TVLWWYTGTRP [UGT1A1_Y337_R336W], the phosphorylation enrichment falls from 1.4 to 0.41.

First: PGAPAYCVLME [MYO5A_Y1245_R1246C]
Second: LGIDRYHAIVF [NPSR1_Y147_S143G_YF]
The phosphorylation enrichment of the first is higher: 1.38 for the first, 0.942 for the second.

First: GLSSAYGDLTS [KRT8_Y427_G429D]
Second: PVKSEYPSIKL [NPC2_Y119]
The phosphorylation enrichment of the first is higher: 0.535 for the first, 0.515 for the second.

First: GQECEYPPTQD [METAP2_Y137]
Second: KVPELYEIHTE [BCR_Y554_K558T]
The phosphorylation enrichment of the first is lower: 0.63 for the first, 0.745 for the second.

First: IGHHAYGDQFR [IDH1_Y135_R132H_YF]
Second: VREIRYQGGNR [VWF_Y1570]
The phosphorylation enrichment of the first is lower: 0.381 for the first, 0.42 for the second.

TDECEYDELIV [TGM1_Y136_Y134C] showed a phosphorylation enrichment of 1.8.
